From patent US20240309087A1 come the findings set out here.

In assay [1] the target is human CD112R on CHO-CD112R cells (human) (UniProt Q6DKI7). Briefly: FACS binding to CHO-CD112R cells, MFI-APC, fit of the negative control; unit from the axis. In general terms: Flow cytometry measures light scatter and fluorescence of single cells or particles in a stream.
For assay [2] the target is unchanged. The experiment in a line: FACS binding to CHO-CD112R cells, MFI-APC, ambiguous fit of the negative control; unit from the axis.

Chain of human CD112R on CHO-CD112R cells (human) (Q6DKI7 41-326 limits assumed): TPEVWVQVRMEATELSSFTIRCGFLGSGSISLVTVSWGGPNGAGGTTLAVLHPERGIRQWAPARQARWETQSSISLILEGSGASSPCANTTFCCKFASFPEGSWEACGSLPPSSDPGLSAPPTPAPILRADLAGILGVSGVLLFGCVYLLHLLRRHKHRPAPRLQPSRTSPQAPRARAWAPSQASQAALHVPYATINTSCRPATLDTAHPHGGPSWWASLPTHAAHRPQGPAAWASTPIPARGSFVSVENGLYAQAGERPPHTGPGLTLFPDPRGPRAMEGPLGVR

Take anti-KLH hu-IgG4 antibody: the EC50 (as a rule, the concentration at which the effect is half-maximal) is 26.3 mg/L in assay [1] and 4050 mg/L in assay [2].
